From publication PMC5290284, “Portal protein functions akin to a DNA-sensor that couples genome-packaging to icosahedral capsid maturation” (Nature Communications, 2017)

T1: P22 PC-portal rings coupled to CNBr-activated Sepharose beads (bacteriophage P22, UniProt P26744 1-725)
T1 construct: Portal protein (gp1) of bacteriophage P22; Procapsid conformation; also called PC-portal protein; PC-portal beads; source: E. coli BL21 (DE3), purified (Ni-NTA, Superose 6); copies: 12
T1 sequence (looked up): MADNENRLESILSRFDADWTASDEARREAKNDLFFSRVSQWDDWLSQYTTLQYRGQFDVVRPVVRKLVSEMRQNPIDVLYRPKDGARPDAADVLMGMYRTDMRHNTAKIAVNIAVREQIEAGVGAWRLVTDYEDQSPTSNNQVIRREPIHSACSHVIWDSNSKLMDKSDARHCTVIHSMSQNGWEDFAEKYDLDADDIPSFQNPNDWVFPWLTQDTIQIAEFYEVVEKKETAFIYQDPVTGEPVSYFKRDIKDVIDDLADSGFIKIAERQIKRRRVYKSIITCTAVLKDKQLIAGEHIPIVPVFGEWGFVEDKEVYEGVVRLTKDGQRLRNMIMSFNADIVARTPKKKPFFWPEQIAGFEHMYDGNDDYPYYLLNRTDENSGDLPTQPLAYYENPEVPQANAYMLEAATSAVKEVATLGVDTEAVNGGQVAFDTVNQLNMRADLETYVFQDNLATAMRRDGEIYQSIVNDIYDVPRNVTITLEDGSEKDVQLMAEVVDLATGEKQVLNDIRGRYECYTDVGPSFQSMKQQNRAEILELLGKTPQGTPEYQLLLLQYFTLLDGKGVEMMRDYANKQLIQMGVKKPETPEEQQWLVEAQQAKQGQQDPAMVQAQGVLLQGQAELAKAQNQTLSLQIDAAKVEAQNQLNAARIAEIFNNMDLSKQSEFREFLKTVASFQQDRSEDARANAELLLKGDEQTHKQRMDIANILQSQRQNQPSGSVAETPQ

T2: P22 MV-portal rings coupled to CNBr-activated Sepharose beads (bacteriophage P22, UniProt P26744 1-725)
T2 construct: Portal protein (gp1) of bacteriophage P22; Mature virion conformation; also called MV-portal protein; MV-portal beads; source: E. coli BL21 (DE3), purified (Ni-agarose, Superose 12); copies: 12
T2 sequence (looked up): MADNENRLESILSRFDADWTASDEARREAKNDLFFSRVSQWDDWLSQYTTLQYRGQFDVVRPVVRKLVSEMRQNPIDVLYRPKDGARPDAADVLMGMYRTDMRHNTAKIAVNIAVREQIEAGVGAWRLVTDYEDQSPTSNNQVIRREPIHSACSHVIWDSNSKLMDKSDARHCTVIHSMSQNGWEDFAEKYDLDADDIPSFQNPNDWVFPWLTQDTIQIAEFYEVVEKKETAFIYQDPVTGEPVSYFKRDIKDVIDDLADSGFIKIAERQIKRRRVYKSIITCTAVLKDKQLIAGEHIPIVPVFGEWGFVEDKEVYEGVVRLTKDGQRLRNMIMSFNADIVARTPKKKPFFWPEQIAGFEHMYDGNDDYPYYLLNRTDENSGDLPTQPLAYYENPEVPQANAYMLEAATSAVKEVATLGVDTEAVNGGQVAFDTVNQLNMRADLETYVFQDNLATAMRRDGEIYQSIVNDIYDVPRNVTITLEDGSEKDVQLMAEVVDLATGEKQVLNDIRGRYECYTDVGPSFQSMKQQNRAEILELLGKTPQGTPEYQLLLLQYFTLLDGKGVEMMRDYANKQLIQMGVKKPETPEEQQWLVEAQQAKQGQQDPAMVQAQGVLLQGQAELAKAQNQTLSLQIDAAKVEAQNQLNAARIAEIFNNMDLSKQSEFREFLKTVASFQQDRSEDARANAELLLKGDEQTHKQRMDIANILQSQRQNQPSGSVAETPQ

B1: P22 PC-portal protein core (res. 1–602), procapsid conformation (domain or fragment, bacteriophage P22, UniProt P26744 1-602, looked up)
chain: MADNENRLESILSRFDADWTASDEARREAKNDLFFSRVSQWDDWLSQYTTLQYRGQFDVVRPVVRKLVSEMRQNPIDVLYRPKDGARPDAADVLMGMYRTDMRHNTAKIAVNIAVREQIEAGVGAWRLVTDYEDQSPTSNNQVIRREPIHSACSHVIWDSNSKLMDKSDARHCTVIHSMSQNGWEDFAEKYDLDADDIPSFQNPNDWVFPWLTQDTIQIAEFYEVVEKKETAFIYQDPVTGEPVSYFKRDIKDVIDDLADSGFIKIAERQIKRRRVYKSIITCTAVLKDKQLIAGEHIPIVPVFGEWGFVEDKEVYEGVVRLTKDGQRLRNMIMSFNADIVARTPKKKPFFWPEQIAGFEHMYDGNDDYPYYLLNRTDENSGDLPTQPLAYYENPEVPQANAYMLEAATSAVKEVATLGVDTEAVNGGQVAFDTVNQLNMRADLETYVFQDNLATAMRRDGEIYQSIVNDIYDVPRNVTITLEDGSEKDVQLMAEVVDLATGEKQVLNDIRGRYECYTDVGPSFQSMKQQNRAEILELLGKTPQGTPEYQLLLLQYFTLLDGKGVEMMRDYANKQLIQMGVKKPETPEEQQWLVEAQQAKQG
notes: Portal protein (gp1) of bacteriophage P22, core, residues 1–602; Asymmetric dodecamer; also called PC-portal core; portal-602; copies: 12
B2: P22 tail factor gp4 (natural protein, bacteriophage P22, UniProt P26746 1-166, looked up)
chain: MQIKTKGDLVRAALRKLGVASDATLTDVEPQSMQDAVDDLEAMMAEWYQDGKGIITGYVFSDDENPPAEGDDHGLRSSAVSAVFHNLACRIAPDYALEATAKIIATAKYGKELLYKQTAISRAKRAPYPSRMPTGSGNSFANLNEWHYFPGEQNADSTTPHDEGNG
notes: Tail factor gp4 of bacteriophage P22; source: E. coli BL21 (DE3), purified (Ni-agarose, Superdex 75)

Legend:
[1] = biological target: the molecule itself; test: crystal structure; PC-portal core at 10 mg/ml, 5% PEG 8,000, 10 mM caesium chloride, pH 5.6, 22 °C; 3.30 Å; whole dodecamer in the asymmetric unit
[2] = biological target: T1, P22 PC-portal rings coupled to …; test: pull-down; PC- or MV-portal rings immobilized on CNBr-activated Sepharose 4B beads; soluble protein added (L-terminase pre-complexed with non-hydrolyzable ATP); bound and unbound fractions on SDS–PAGE; conditions: both partners purified
[3] = biological target: T2, P22 MV-portal rings coupled to …; test: as above; conditions: both partners purified

Row | Binder | stoichiometry N [1] | stoichiometry N [2] | stoichiometry N [3]
1 | B1 | 12 protomers |  | 
2 | B2 |  | 11.4 ± 1 gp4 equivalents | 11 ± 1 gp4 equivalents
